Measured values taken from the supplement of paper PMC11246515.
± gives the standard deviation of the averaged measurements.

Assay: total protein half-life in vivo (active degradation + dilution); higher = more stable protein
[1] = E. coli NCM3722 delta-clpP delta-lon delta-hslV, growth: N-lim chemostat, doubling time 6 h
[2] = E. coli NCM3722 delta-clpP, growth: N-lim chemostat, doubling time 6 h
[3] = E. coli NCM3722 delta-hslV, growth: N-lim chemostat, doubling time 6 h
[4] = E. coli NCM3722 delta-lon, growth: N-lim chemostat, doubling time 6 h
[5] = E. coli NCM3722 delta-smpB, growth: N-lim chemostat, doubling time 6 h
[6] = wild type E. coli NCM3722, growth: C-lim chemostat, doubling time 3 h
[7] = wild type E. coli NCM3722, growth: C-lim chemostat, doubling time 6 h
[8] = wild type E. coli NCM3722, growth: C-lim chemostat, doubling time 12 h
[9] = wild type E. coli NCM3722, growth: N-lim chemostat, doubling time 6 h
[10] = wild type E. coli NCM3722, growth: N-lim chemostat, doubling time 12 h
[11] = wild type E. coli NCM3722, growth: P-lim chemostat, doubling time 6 h
[12] = wild type E. coli NCM3722, growth: P-lim chemostat, doubling time 12 h

Sequence | total protein half-life in vivo [1] [h] | total protein half-life in vivo [2] [h] | total protein half-life in vivo [3] [h] | total protein half-life in vivo [4] [h] | total protein half-life in vivo [5] [h] | total protein half-life in vivo [6] [h] | total protein half-life in vivo [7] [h] | total protein half-life in vivo [8] [h] | total protein half-life in vivo [9] [h] | total protein half-life in vivo [10] [h] | total protein half-life in vivo [11] [h] | total protein half-life in vivo [12] [h]
MFDIGFSELLLVFIIGLVVLGPQRLPVAVKTVAGWIRALRSLATTVQNELTQELKLQEFQDSLKKVEKASLTNLTPELKASMDELRQAAESMKRSYVANDPEKASDEAHTIHNPVVKDNEAAHEGVTPAAAQTQASSPEQKPETTPEPVVKPAADAEPKTAAPSPSSSDKP | 4.29 ± 0.055 | 5.27 ± 1.5 | 5.04 ± 0.61 | 3.92 ± 0.51 | 4.49 ± 0.26 | 2.57 ± 0.12 | 4.41 ± 0.55 | 7 ± 1.1 | 4.65 ± 0.15 | 8.87 ± 1.3 | 4.27 ± 0.49 | 7.92 ± 0.28
MSLPHLSLADARNLHLAAQGLLNKPRRRASLEDIPATISRMSLLQIDTINIVARSPYLVLFSRLGNYPAQWLDESLARGELMEYWAHEACFMPRSDFRLIRHRMLAPEKMGWKYKDAWMQEHEAEIAQLIQHIHDKGPVRSADFEHPRKGASGWWEWKPHKRHLEGLFTAGKVMVIERRNFQRVYDLTHRVMPDWDDERDLVSQTEAEIIMLDNSARSLGIFREQWLADYYRLKRPALAAWREARAEQQQIIAVHVEKLGNLWLHDDLLPLLERALAGKLTATHSAVLSPFDPVVWDRKRAEQLFDFSYRLECYTPAPKRQYGYFVLPLLHRGQLVGRMDAKMHRQTGILEVISLWLQEGIKPTTTLQKGLRQAITDFANWQQATRVTLGCCPQGLFTDCRTGWEIDPVA | 6.77 | – | – | – | – | – | – | – | – | – | – | –
MNISDVAKITGLTSKAIRFYEEKGLVTPPMRSENGYRTYTQQHLNELTLLRQARQVGFNLEESGELVNLFNDPQRHSADVKRRTLEKVAEIERHIEELQSMRDQLLALANACPGDDSADCPIIENLSGCCHHRAG [P0A9G4] | 4.71 ± 0.63 | 1.45 | – | 2.12 ± 0.77 | – | 1.3 | 1.95 | 2.21 | – | 1.07 | 0.945 | 2.28 ± 0.59
MNPIVINRLQRKLGYTFNHQELLQQALTHRSASSKHNERLEFLGDSILSYVIANALYHRFPRVDEGDMSRMRATLVRGNTLAELAREFELGECLRLGPGELKSGGFRRESILADTVEALIGGVFLDSDIQTVEKLILNWYQTRLDEISPGDKQKDPKTRLQEYLQGRHLPLPTYLVVQVRGEAHDQEFTIHCQVSGLSEPVVGTGSSRRKAEQAAAEQALKKLELE [P0A7Y0] | 5.33 ± 0.47 | 4.64 ± 0.1 | 5.21 ± 0.87 | 5.08 ± 0.24 | 4.72 ± 0.15 | 2.85 ± 0.21 | 5.54 ± 0.24 | 8.37 ± 0.68 | 4.85 ± 0.54 | 7.78 ± 0.17 | 5.51 ± 0.21 | 11.4 ± 0.34
MASTFTSDTLPADHKAAIRQMKHALRAQLGDVQQIFNQLSDDIATRVAEINALKAQGDAVWPVLSYADIKAGHVTAEQREQIKRRGCAVIKGHFPREQALGWDQSMLDYLDRNRFDEVYKGPGDNFFGTLSASRPEIYPIYWSQAQMQARQSEEMANAQSFLNRLWTFESDGKQWFNPDVSVIYPDRIRRRPPGTTSKGLGAHTDSGALERWLLPAYQRVFANVFNGNLAQYDPWHAAHRTEVEEYTVDNTTKCSVFRTFQGWTALSDMLPGQGLLHVVPIPEAMAYVLLRPLLDDVPEDELCGVAPGRVLPVSEQWHPLLIEALTSIPKLEAGDSVWWHCDVIHSVAPVENQQGWGNVMYIPAAPMCEKNLAYAHKVKAALEKGASPGDFPREDYETNWEGRFTLADLNIHGKRALGMDV | 3.33 ± 0.48 | 2.54 ± 0.23 | 2.4687 ± 0.002 | 2.95 ± 0.21 | 2.62 ± 0.082 | 2.7 ± 0.11 | 4.34 ± 1 | 3.99 ± 0.74 | 2.526 ± 0.014 | 3.68 ± 0.21 | 4.563 ± 0.02 | 7.6 ± 0.48
MTNRLVLSGTVCRAPLRKVSPSGIPHCQFVLEHRSVQEEAGFHRQAWCQMPVIVSGHENQAITHSITVGSRITVQGFISCHKAKNGLSKMVLHAEQIELIDSGD | – | – | – | – | 4.72 | 2.97 | – | – | 5.76 | – | – | 15.6
MSTEKEKMIAGELYRSADETLSRDRLRARQLIHRYNHSLAEEHTLRQQILADLFGQVTEAYIEPTFRCDYGYNIFLGNNFFANFDCVMLDVCPIRIGDNCMLAPGVHIYTATHPIDPVARNSGAELGKPVTIGNNVWIGGRAVINPGVTIGDNVVVASGAVVTKDVPDNVVVGGNPARIIKKL | 3.81 | > 8 | 1.77 | – | – | 3.24 ± 0.56 | 3.82 ± 0.11 | 5.15 ± 2.1 | – | – | > 8 | 7.59 ± 1.4
MSDRIDRDVINALIAGHFADPFSVLGMHKTTAGLEVRALLPDATDVWVIEPKTGRKLAKLECLDSRGFFSGVIPRRKNFFRYQLAVVWHGQQNLIDDPYRFGPLIQEMDAWLLSEGTHLRPYETLGAHADTMDGVTGTRFSVWAPNARRVSVVGQFNYWDGRRHPMRLRKESGIWELFIPGAHNGQLYKYEMIDANGNLRLKSDPYAFEAQMRPETASLICGLPEKVVQTEERKKANQFDAPISIYEVHLGSWRRHTDNNFWLSYRELADQLVPYAKWMGFTHLELLPINEHPFDGSWGYQPTGLYAPTRRFGTRDDFRYFIDAAHAAGLNVILDWVPGHFPTDDFALAEFDGTNLYEHSDPREGYHQDWNTLIYNYGRREVSNFLVGNALYWIERFGIDALRVDAVASMIYRDYSRKEGEWIPNEFGGRENLEAIEFLRNTNRILGEQVSGAVTMAEESTDFPGVSRPQDMGGLGFWYKWNLGWMHDTLDYMKLDPVYRQYHHDKLTFGILYNYTENFVLPLSHDEVVHGKKSILDRMPGDAWQKFANLRAYYGWMWAFPGKKLLFMGNEFAQGREWNHDASLDWHLLEGGDNWHHGVQRLVRDLNLTYRHHKAMHELDFDPYGFEWLVVDDKERSVLIFVRRDKEGNEIIVASNFTPVPRHDYRFGINQPGKWREILNTDSMHYHGSNAGNGGTVHSDEIASHGRQHSLSLTLPPLATIWLVREAE | 6.52 ± 0.61 | 5.72 ± 0.24 | 6.65 ± 0.44 | 6.1 ± 0.46 | 6.35 ± 0.16 | 2.98 ± 0.15 | 6.06 ± 0.42 | 13.2 ± 0.43 | 5.95 ± 0.2 | 12.2 ± 2.1 | 6.35 ± 0.33 | 12.1 ± 1.9
MGKLTLLLLAILVWLQYSLWFGKNGIHDYTRVNDDVAAQQATNAKLKARNDQLFAEIDDLNGGQEALEERARNELSMTRPGETFYRLVPDASKRAQSAGQNNR [P0A6S5] | 5.44 | 3.17 | 4.05 | 4.37 | – | 2.7 | 4.69 ± 0.55 | – | 3.47 | 6.03 | – | > 16
